Experimental data published in US20110262439A1 (Amgen, published 2011).
Values belong to the binder of their own block, whether it stands above or below them.

Key:
[1] = molecular target: T1, mutated murine c-MET antigen with human membrane-distal epitopes (extracellular domains fused to a truncated … (murine/human chimera)); experiment: FACS, CHO transfectants, periplasmic preparation
T1 construct: also called cMET-8
T1 chain: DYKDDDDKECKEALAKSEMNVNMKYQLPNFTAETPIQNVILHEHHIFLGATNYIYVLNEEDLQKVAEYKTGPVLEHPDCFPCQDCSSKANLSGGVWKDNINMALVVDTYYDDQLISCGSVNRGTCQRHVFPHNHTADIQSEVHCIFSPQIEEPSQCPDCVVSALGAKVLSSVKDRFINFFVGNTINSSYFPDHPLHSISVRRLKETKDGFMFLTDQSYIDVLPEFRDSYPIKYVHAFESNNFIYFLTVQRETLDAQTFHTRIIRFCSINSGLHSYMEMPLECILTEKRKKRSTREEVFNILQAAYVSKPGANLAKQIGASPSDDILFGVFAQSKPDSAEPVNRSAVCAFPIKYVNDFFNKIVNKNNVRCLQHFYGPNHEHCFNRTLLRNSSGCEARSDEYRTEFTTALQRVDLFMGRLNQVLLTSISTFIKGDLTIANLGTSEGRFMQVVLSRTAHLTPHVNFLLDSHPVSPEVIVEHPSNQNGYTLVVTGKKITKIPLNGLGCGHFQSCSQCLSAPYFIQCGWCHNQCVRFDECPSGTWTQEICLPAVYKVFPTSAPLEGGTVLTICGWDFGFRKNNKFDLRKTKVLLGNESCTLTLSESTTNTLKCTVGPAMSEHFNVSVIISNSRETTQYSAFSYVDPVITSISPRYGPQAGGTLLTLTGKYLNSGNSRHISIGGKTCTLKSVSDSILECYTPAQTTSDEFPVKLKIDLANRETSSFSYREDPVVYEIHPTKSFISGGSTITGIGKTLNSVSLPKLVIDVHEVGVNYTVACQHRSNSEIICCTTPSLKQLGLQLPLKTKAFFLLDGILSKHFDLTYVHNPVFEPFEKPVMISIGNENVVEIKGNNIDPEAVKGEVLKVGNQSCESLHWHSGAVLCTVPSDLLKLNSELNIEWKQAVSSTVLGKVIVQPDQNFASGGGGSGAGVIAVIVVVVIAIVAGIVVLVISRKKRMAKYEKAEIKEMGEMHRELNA

[2] = molecular target: T2, mutated human c-MET antigen with murine membrane-distal epitopes (extracellular domains fused to a truncated … (human/murine chimera)); experiment: FACS, CHO transfectants, periplasmic preparation
T2 construct: also called cMET-10
T2 chain: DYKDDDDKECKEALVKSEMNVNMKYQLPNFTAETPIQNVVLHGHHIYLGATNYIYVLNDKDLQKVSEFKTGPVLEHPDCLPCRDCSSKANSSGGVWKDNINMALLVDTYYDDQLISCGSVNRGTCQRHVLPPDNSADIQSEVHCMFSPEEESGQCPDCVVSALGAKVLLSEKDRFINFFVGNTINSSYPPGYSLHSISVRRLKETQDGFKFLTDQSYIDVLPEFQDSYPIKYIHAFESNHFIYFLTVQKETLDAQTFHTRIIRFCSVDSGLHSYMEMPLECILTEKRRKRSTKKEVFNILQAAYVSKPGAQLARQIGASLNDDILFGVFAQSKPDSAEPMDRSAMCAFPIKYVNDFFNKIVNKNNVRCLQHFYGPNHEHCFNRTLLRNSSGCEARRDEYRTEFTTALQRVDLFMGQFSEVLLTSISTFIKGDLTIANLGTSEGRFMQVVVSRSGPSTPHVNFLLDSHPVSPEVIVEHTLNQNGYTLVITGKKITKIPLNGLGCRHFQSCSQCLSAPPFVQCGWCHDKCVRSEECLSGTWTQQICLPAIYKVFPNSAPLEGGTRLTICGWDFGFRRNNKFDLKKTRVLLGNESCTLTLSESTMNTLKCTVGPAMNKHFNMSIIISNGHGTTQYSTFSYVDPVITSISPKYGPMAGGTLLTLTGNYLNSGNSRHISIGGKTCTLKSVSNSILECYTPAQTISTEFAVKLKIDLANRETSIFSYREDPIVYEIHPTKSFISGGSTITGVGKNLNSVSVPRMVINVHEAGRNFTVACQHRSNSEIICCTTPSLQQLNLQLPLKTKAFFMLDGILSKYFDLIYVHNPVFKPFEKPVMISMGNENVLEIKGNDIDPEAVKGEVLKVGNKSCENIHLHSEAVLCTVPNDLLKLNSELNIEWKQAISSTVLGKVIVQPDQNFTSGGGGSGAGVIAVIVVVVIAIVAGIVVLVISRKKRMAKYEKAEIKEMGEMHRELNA

B1: ME06E10HL (scFv)
scFv: EVQLLEQSGADLVRPGTSVKLSCKAAGYTFSRYWISWIRQRPGHGLEWIGEIYPGGGYGNYNENFKDKVTLTADTSSSTAYMQLSSLTSEDSAIYYCARSGYDYGSKYDYYGLDYWGQGTTVTVSSGGGGSGGGGSGGGGSELVMTQSPSSLSASLGERVSLTCRASQEISGYLSWLQQKPDGTIKRLIYAASTLDSGVPKRFSGSRSGSDYSLTISSLESEDFADYYCLQYASSPYTFGGGTKLEIKTGDYKDDDDKHHHHHH
notes: murine anti-c-MET scFv; E. coli periplasmic preparation
binding result [1]: no binding
binding result [2]: binds

B2: ME99B1HL (scFv)
scFv: EVQLLEQSGAELVRPGTSVKISCKATGYTFSNYWISWVKYRPGHGLEWIGDIYPGGSYTNYNEKFKGKVTLTADTSSRTAYMQLSGLTFEDSAIYYCARSGYDYGSDYDYHGMDYWGQGTTVTVSSGGGGSGGGGSGGGGSELQMTQSPASLSASVGETVTITCRASENIYSNLAWYQQKQGKSPQLLVYAATNLADGVPSRFSGSRSGSDYSLTISSLESEDFVDYYCLQYASYPYTFGGGTKLEIKTGDYKDDDDKHHHHHH
notes: as for B1
binding result [1]: no binding

B3: ME06D1HL (scFv)
scFv: EVQLLEQSGAEVVRPGTSVKMSCKAAGYTFTKYWIGWVKQRPGHGLEWIGDIHPGGGFANYNEKFKGKATLTADTSSSTAYMQLSRLTSDDSAIYYCARSGYDYGSSYDYHGMDYWGQGTTVTVSSGGGGSGGGGSGGGGSELVMTQSPSSLTVTAGEKVTMSCKSSQSLLNSGNQKNYLAWYQQKPGQPPKLLIYGASTRESGVPDRFTGSGSGTDFTLTISSVQAEDLADYFCQQHYSTPYTFGGGTKLEIKTGDYKDDDDKHHHHHH
notes: as for B1
binding result [1]: no binding
binding result [2]: binds

B4: ME05F6HL (scFv)
scFv: EVQLLEQSGAEVVRPGTSVKMSCKAAGYTFTKYWIGWVKQRPGHGLEWIGDIHPGGGFANYNEKFKGKATLTADTSSSTAYMQLSRLTSDDSAIYYCARSGYDYGSSYDYHGMDYWGQGTTVTVSSGGGGSGGGGSGGGGSELVMTQSPSSLSASLGERVSLTCRASQEISGYLSWLQQKPDGTIKRLIYAASTLDSGVPKRFSGSRSGSDYSLTISSLESEDFADYYCLQYASYPPTFGGGTKLEIKTGDYKDDDDKHHHHHH
notes: as for B1
binding result [1]: no binding
binding result [2]: binds

B5: ME75H6HL (scFv)
scFv: EVQLLEQSGAELVRPGTSVKMSCKAAGYTFTKYWIGWVKQRPGHGLEWIGDIHPGGGYANYNEKFKGKATLTADTSSSTAYMQLSRLTSDDSAIYYCARSGYDYGSSYDYHGMDFWGQGTTVTVSSGGGGSGGGGSGGGGSELQMTQSPASLSASVGEPVTFTCRASENIYSYLAWYQQKQGKSPQLLIYGATNLADGMSSRFSGSGSGRQYSLKISSLHPDDVATYYCQNVLSTPYTFGGGTKLEIKTGDYKDDDDKHHHHHH
notes: as for B1
binding result [1]: no binding
binding result [2]: binds

B6: ME06F2HL (scFv)
scFv: EVQLLEQSGAELMKPGASVKISCKATGYTFSNYWIGWVKQRPGHGLEWIGDIYPGGSYTNYNEKFKGKVTLTADTSSRTAYMQLSSLTFEDSAIYYCARSGYDYASDYDYHGMDYWGQGTTVTVSSGGGGSGGGGSGGGGSELVLTQSPSSMSASLGDRITITCQATQDIVKNLNWYQQKPGKPPSFLIYYATELAEGVPSRFSGSGSGSDYSLTISNLESEDFADYYCLQFYEFPYTFGGGTKLEIKTGDYKDDDDKHHHHHH
notes: as for B1
binding result [1]: no binding
binding result [2]: binds

Other lines, results leading:

binding result [1]: no binding
binding result [2]: binds
B7: ME06C6HL (scFv)
scFv: EVQLLEQSGAELVRPGTSVKIPCKATGYTFSYYWIGWVKQRPGHGLEWIGDIYPGGGYSNYNEKFKGKATLTADTSSSTAYMQLSGLTSEDSAIYYCARSGYDYGSDYDYHGLDYWGQGTTVTVSSGGGGSGGGGSGGGGSELVLTQSPASLAVSLGQRATISCRASESVEYYGTSLMQWYQQKPGQPPKLLIYAASNVESGVPARFSGSGSGTDFSLNIHPVEEDDIAMYFCQQSRKVPYTFGGGTKLEIKTGDYKDDDDKHHHHHH
notes: as for B1

binding result [1]: no binding
binding result [2]: binds
B8: ME06B7HL (scFv)
scFv: EVQLLEQSGAELVRPGTSVKISCKATGYTFTTYWLGWVKQRPGHGLEWIGEIHPGGGYTNYNEKFKGKATLTADTSSSTAYMQLSRLTSDDSAIYYCARSGYDYGSSYDYYGMDYWGQGTTVTVSSGGGGSGGGGSGGGGSELVMTQSPSSLSASLGERVSLTCRASQDIGSSLNWLQQEPDGTIKRLIYATSSLDSGVPKRFSGSRSGSDYSLTISSLESEDFVDYYCLQYASSPYTFGGGTKLEIKTGDYKDDDDKHHHHHH
notes: as for B1

binding result [1]: no binding
binding result [2]: binds
B9: ME06D2HL (scFv)
scFv: EVQLLEQSGADLVRPGTSVKLSCKAAGYTFSRYWISWIRQRPGHGLEWIGEIYPGGGYGNYNENFKDKVTLTADTSSSTAYMQLSSLTSEDSAIYYCARSGYDYGSKYDYYGLDYWGQGTTVTVSSGGGGSGGGGSGGGGSELVMTQSPSSMYASLGERVTITCKASQDINSYLSWFQQKPGKSPKTLIYRANRLVDGVPSRFSGSGSGQDYSLTISSLEYEDMGIYYCLQYDAFPPTFGAGTKLEIKTGDYKDDDDKHHHHHH
notes: as for B1

binding result [1]: no binding
binding result [2]: binds
B10: ME06C7HL (scFv)
scFv: EVQLLEQSGAEVVRPGTSVKMSCKAAGYTFTKYWIGWVKQRPGHGLEWIGDIHPGGGFANYNEKFKGKATLTADTSSSTAYMQLSRLTSDDSAIYYCARSGYDYGSSYDYHGMDYWGQGTTVTVSSGGGGSGGGGSGGGGSELQMTQSPTSLAVSLGQRATISCRASQTVYYDGNNYMNWYQHKPGQPPKLLIYATSNLESGIPARFSGSGSGTDFTLNIHPVEAEDAATYYCQQSYEDPYTFGGGTKLEIKTGDYKDDDDKHHHHHH
notes: as for B1

binding result [1]: no binding
binding result [2]: binds
B11: ME05B7HL (scFv)
scFv: EVQLLEQSGAELVRPGTSVKISCKTTGYTFGYYWISWLKQRPGHGLEWIGDIYPGGGYTNYHEKFKGKVTLTADTSSRTAYMQLSSLTFEDSAIYYCARSGYDYGSDYDYHGMDYWGQGTTVTVSSGGGGSGGGGSGGGGSELVMTQTPSSLSASLGDRVTISCRASQGISNYLNWYQQKPDGSVKLLIYYTSRLHSGVPSRFSGSGSGTDYSLTISNLDQEDIATYFCQQGNTLPWTFGGGTKLEIKTGDYKDDDDKHHHHHH
notes: as for B1
